Results taken from patent US20250313625A1 (ELPISCIENCE SUZHOU BIOPHARMA, published 2025).

T1: mFc tagged human LAG3 ECD recombinant protein (human, UniProt P18627 23-450)
T1 construct: extracellular domain; purchased from Biointron; not shown: mouse IgG Fc (mFc) tag
T1 sequence (looked up): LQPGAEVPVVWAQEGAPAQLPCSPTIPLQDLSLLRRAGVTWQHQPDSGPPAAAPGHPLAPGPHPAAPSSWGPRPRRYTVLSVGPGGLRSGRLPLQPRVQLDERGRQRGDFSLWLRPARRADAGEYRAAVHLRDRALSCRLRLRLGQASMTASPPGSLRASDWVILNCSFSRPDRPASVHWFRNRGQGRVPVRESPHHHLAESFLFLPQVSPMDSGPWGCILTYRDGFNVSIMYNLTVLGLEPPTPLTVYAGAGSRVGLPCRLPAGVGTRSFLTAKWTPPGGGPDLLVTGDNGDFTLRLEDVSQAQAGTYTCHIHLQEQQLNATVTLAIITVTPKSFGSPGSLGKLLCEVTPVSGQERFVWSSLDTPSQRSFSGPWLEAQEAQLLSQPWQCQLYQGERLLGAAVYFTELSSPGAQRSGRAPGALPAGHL

T2: human LAG3 (form used in Octet, Biacore and HDX-MS not given) (human, UniProt P18627 23-450, limits assumed)
T2 sequence (looked up): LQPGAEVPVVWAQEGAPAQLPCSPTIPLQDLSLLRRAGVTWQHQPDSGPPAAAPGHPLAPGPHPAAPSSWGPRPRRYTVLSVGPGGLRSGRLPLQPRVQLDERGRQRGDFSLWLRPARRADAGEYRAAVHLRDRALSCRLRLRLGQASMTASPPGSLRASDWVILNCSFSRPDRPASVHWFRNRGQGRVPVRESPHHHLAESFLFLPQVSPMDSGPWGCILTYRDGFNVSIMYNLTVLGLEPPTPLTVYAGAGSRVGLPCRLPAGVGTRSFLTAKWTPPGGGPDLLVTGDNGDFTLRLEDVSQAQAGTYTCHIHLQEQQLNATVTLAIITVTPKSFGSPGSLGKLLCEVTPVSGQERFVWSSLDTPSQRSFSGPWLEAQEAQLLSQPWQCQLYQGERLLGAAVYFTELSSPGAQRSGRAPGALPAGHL

T3: human LAG3, full length, stably expressed on cells (human, UniProt P18627 23-525)
T3 construct: whole, on cells; also called CHOK1-human LAG3
T3 sequence (looked up): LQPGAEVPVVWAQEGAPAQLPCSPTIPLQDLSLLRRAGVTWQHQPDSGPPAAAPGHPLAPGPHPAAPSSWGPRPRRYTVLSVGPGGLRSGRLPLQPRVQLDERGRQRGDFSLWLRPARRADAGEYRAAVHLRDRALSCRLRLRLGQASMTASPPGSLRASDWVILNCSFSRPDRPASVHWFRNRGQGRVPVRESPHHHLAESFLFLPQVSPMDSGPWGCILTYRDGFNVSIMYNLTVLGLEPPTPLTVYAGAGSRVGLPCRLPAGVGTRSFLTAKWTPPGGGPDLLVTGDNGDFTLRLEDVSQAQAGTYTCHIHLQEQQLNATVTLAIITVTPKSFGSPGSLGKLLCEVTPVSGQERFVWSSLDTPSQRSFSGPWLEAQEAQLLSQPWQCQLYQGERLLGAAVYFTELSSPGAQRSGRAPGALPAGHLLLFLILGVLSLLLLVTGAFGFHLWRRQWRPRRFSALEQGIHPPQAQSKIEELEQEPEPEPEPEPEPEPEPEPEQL

T4: hFc tagged human LAG3 ECD recombinant protein (human, UniProt P18627 23-450)
T4 construct: range 23-450; also called biotin labelled hFc tagged human LAG3 ECD; not shown: human IgG Fc tag
T4 sequence (looked up): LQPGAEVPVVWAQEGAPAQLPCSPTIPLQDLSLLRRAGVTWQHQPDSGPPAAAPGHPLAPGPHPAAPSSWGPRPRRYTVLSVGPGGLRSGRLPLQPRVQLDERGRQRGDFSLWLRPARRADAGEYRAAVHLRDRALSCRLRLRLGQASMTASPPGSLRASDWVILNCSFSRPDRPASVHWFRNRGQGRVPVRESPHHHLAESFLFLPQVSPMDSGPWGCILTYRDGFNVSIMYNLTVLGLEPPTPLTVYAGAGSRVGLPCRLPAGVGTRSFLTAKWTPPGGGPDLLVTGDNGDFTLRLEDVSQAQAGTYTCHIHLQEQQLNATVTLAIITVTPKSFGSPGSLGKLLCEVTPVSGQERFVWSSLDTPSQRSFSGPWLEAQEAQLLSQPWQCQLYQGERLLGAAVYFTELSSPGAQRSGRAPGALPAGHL


What was measured:
[1] = biological target: T1, mFc tagged human LAG3 ECD recombinant …; experiment: competitive FACS: mFc-LAG3 ECD binding to Raji cells (MHC II)
Description: Activity of the purified chimeric antibodies to block LAG3 and MHC II interaction was determined by competitive FACS assay. […] After washing, dye labeled anti-mouse Fc 2nd antibody (Sigma) was added and incubated at 37° C. for 1 hour. Fluorescence intensity was detected.

[2] = biological target: T2, human LAG3 (form used in Octet, Biacore …); experiment: BLI (Octet)
[3] = biological target: T3, human LAG3, full length, stably …; experiment: FACS on 293F cells stably expressing human LAG3
Description: Briefly the antibodies were incubated with 2×10⁵ target cells at 4° C. for 1 hour. After washing, fluorescence labeled anti-mouse IgG 2nd antibody (Life Technologies) was added and incubated at 4° C. for 1 hour. Geometric median fluorescence intensity (MFI) was detected and EC₅₀ was calculated using GraphPad Prism9.0.
MFI was detected and EC₅₀ was calculated using GraphPad Prism9.0.

[4] = biological target: T4, hFc tagged human LAG3 ECD recombinant …; experiment: competitive ELISA format II: biotin hFc-LAG3 ECD binding to coated His-FGL1
Description: After washing, HRP labeled anti-His 2nd antibody (Sigma) was added and incubated at 37° C. for 1 hour. Then, 100 μl/well of TMB solution (Biotechnology) was added. After incubation for 15 minutes at room temperature, the reaction was stopped by the addition of 50 μl of 1N HCl. OD 450 nm was read. […] After washing, HRP labeled anti-SA 2nd antibody (Sigma) was added and incubated at 37° C. for 1 hour. Then, 100 μl/well of TMB solution (Biotechnology) was added. After incubation for 15 minutes at room temperature, the reaction was stopped by the addition of 50 μl of 1N HCl. OD 450 nm was read. […] The competition assay of format III is a competitive FACS assay. […] After washing, dye labeled anti-His 2nd antibody (Sigma) was added and incubated at 37° C. for 1 hour. Fluorescence intensity was detected.

IC50 [1] [nM]	TOP blocking (%) [1] [%]	Kd [2] [nM]	koff [2] [s⁻¹]	kon [2] [M⁻¹ s⁻¹]	EC50 [3] [nM]	TOP MFI [3]	IC50 [4] [nM]	TOP blocking (%) [4] [%]	Binder
5.5	99.2	0.591	0.000153	259000	0.32	2990	1.5	81.3	hu023.07 (antibody, human IgG4, V domains shown, humanized from 023c) VH: QVQLVQSGPEVKKPGASVKVSCKASGYTFTESPMNWVRQAPGQGFEWMGIIYTDTGEPTYAEEFKGRVTMTLDTSTSTVYMELSSLRSEDTAVYFCASDYGSILYWYFDVWGQGTLVTVSS VL: DIQMTQSPSSLSASVGDRVTITCKASQDVSTAVAWYQQKPGKAPKLLIYSASYRYTGVPSRFSGSGSGTDFTLTISSLQPEDFATYYCQQHYNAPPTFGQGTKLEIK
5.9	99.2	0.281	7.96e-05	284000	0.2	3200	1.3	82.8	hu023.10 (antibody, human IgG4, V domains shown, humanized from 023c) VH: QVQLVQSGPELKKPGASVKVSCKASGYTFTESPMNWVRQAPGQGFEWMGIIYTDTGEPTYAEEFKGRFVFSLDTSVSTAYLQISSLKAEDTAVYFCVSDYGSILYWYFDVWGQGTLVTVSS VL: DIQMTQSPSSLSASVGDRVTITCKASQDVSTAVAWYQQKPGKAPKLLIYSASYRYTGVPSRFSGSGSGTDFTLTISSLQPEDFATYYCQQHYNAPPTFGQGTKLEIK
